B3: integrin β3 cytoplasmic tail (β3 CT, K716-T762) (domain or fragment, human, UniProt P05106 742-788, looked up)
chain: KLLITIHDRKEFAKFEEERARAKWDTANNPLYKEATSTFTNITYRGT
B4: β3-CT L717K-L718K mutant (domain or fragment, human, UniProt P05106 742-788, looked up)
chain: KKKITIHDRKEFAKFEEERARAKWDTANNPLYKEATSTFTNITYRGT
B5: integrin αIIb cytoplasmic tail (αIIb CT, W988-E1008) (peptide, UniProt P08514 1019-1039, looked up)
chain: WKVGFFKRNRPPLEEDDEEGE

Assay [1] addresses B5. The assay can be described thus: SPR.
The target of assay [2] is T1, β3 transmembrane-cytoplasmic domain (β3 TMCD, K689-T762) (human, UniProt P05106 715-788).
T1 sequence (looked up): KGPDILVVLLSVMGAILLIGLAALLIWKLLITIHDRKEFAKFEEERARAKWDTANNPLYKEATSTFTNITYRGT
The assay can be described thus: NMR titration.

For another assay, the target named is T2, FLNa-Ig21 E2276A (human, UniProt P21333 2236-2330, E2276A).
T2 sequence: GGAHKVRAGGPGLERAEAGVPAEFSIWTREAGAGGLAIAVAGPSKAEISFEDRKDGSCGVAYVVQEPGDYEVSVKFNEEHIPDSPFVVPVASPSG
The assay can be described thus: NMR titration.

Assay [3] deals with T3, filamin A immunoglobulin repeat 21 (FLNa-Ig21) (human, UniProt P21333 2236-2330).
T3 sequence: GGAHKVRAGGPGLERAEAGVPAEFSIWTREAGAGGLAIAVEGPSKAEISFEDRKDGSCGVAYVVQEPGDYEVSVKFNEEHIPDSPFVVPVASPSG
The assay can be described thus: NMR titration.

Assay [4] deals with T3, filamin A immunoglobulin repeat 21 …. The assay can be described thus: SPR.
For the assay “β3-CT L717K-L718K mutant”, the target named is B4. The assay can be described thus: NMR structure.
The target of assay [5] is T4, GST-FLNa-Ig21-β3 CT chimera (human, UniProt P05106 742-788; P21333 2236-2330).
T4 chain: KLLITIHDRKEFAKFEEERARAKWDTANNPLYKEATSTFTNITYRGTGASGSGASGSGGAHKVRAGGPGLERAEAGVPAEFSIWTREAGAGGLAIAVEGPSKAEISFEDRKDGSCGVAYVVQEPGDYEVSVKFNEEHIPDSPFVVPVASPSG
The assay can be described thus: pull-down.

In assay [6] the target is B3.
The target in assay [7] is T5, FLNa-Ig21 pre-saturated β3-CT (human, UniProt P21333 2236-2330; P05106 742-788).
T5 sequence 1: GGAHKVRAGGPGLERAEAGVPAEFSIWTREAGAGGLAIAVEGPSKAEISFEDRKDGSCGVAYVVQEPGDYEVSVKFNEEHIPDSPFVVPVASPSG
T5 sequence 2: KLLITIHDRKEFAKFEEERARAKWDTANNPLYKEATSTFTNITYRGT
In words: SPR.

The target of another assay is T6, FLNa-Ig21 A2268K (human, UniProt P21333 2236-2330, A2268K).
T6 sequence: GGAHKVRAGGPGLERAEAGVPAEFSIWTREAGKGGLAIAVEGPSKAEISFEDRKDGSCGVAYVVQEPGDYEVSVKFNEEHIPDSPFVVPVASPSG
In words: NMR titration.

For assay [8], the target named is B3. The assay can be described thus: NMR titration.

Seven molecules from publication PMC4424056 (Nature structural & molecular biology, 2015) can be followed below.

B1: FLNa-Ig21-β3-CT chimera (other, human)
chain: KLLITIHDRKEFAKFEEERARAKWDTANNPLYKEATSTFTNITYRGTGASGSGASGSGGAHKVRAGGPGLERAEAGVPAEFSIWTREAGAGGLAIAVEGPSKAEISFEDRKDGSCGVAYVVQEPGDYEVSVKFNEEHIPDSPFVVPVASPSG
In assay [1], B1 displayed a Kd of about 19 µM.

B2: αIIb transmembrane-cytoplasmic domain (αIIb TMCD, E960-E1008) (domain or fragment)
chain: not shown
For B2, the binding result in assay [2] is on record as “binds”.
Regarding B3, the binding result (in the assay with FLNa-Ig21 E2276A; in assay [3]) was “binds” throughout.
On to KLLITIHDRKEFAKFEEERARAKW (peptide, UniProt P05106 742-765, looked up) [integrin β3 membrane-proximal fragment β3-N (K716-W739)], for which the Kd in assay [4] was about 223 µM.
As to B4, the binding result in assay [3] is recorded as “binds”.
With B5, the binding result (in the assay with β3-CT L717K-L718K mutant; in [5]; in assay [7]; in the assay with FLNa-Ig21 A2268K) was “binds” each time. This molecule also registered a Kd in assay [6] of about 368 µM.
With WKVGFFERNEPPLEEDDEEGE (peptide, UniProt P08514 1019-1039, looked up) [αIIb CT K994E-R997E mutant], in [8], the binding result is “binds”.
